Data on one substance can be found in article PMC11964938.

In this assay the target is purified, recombinant myristoylated HIV-1 MA protein (HIV-1 pNL4-3).

For the substance “HIV-1 SP2 added to MA on lipid monolayers (peptide)”, the share of sub-images that contributed to mature-like MA lattice classes on lipid monolayers in the presence of SP2 (7% mature-like and 7% immature-like without SP2; no immature-like classes with SP2) amounted to 47%.
